These results are taken from paper PMC11103113, “Evidence for dual targeting control of Arabidopsis 6-phosphogluconate dehydrogenase isoforms by N-terminal phosphorylation” (Journal of Experimental Botany, 2024).

Numbering of substitutions follows the chain as printed. Numbers in names are those of the source.

The target of data set [1] is PGD2_new medial C420S (Arabidopsis thaliana) (UniProt Q9FWA3).
Data set [2] deals with the molecule itself. Kind of data set: semi-native SDS-PAGE with anti-His immunoblot; His-PGD2 variants from cleared E. coli BL21minus extracts, sample buffer without SDS and DTT and without boiling; monomer to dimer. A general note: Immunoblotting shows a protein as a band on a membrane.

B1: PGD2_new medial C420S (enzyme)
chain: MAVQPTRIGLAGLAVMGQNLALNIAEKGFPISVYNRTTSKVDETVERAKKEGNLPLYGFHDPESFVKSIQKPRVIIMLVKAGSPVDQTIKTLSAYLEKGDCIVDGGNEWYENTERREKAVAENGFLYLGMGVSGGEEGARNGPSMMPGGSYEAYKNIEDIVLKVAAQVRDSGPCVTYIGKGGSGNFVKMVHNGIEYGDMQLIAEAYDVLKSVGKLSNEELHSVFSDWNKGELESFLVEITADIFGIKDDKGDGHLVDKVLDKTGMKGTGKWTVQQAAELSVPAPTIESSLDARFLSGLKDERVQAAKVFKAGGFGDILTDQKVDKKQLVDDVRKALYASKICSYAQGMNLIRAKSIEKGWGLKLGELARIWKGGCIIRAIFLDRIKQAYDRNAELANLLVDPEFAKEIIERQSAWRRVVSLAINSGISTPGMSASLAYFDSYRRERLPANLVQAQRDYFGAHTYERTDVEGSFHTEWFKIARQSKI
In turn, B1 gave a 6PGDH activity upon GFP-based pull-down from protoplasts, relative to the corresponding wild-type version (% of the corresponding wild-type version) in data set [1] of 80.

B2: His-PGD2 wild type (full-length protein) (enzyme, Arabidopsis thaliana, UniProt Q9FWA3 1-486, looked up)
chain: B1 chain with S420C
notes: Arabidopsis thaliana PGD2 (At3g02360), full-length protein, cDNA cloned in pET16b; Cloning analogous to Hölscher et al. (2016); Found as monomer and dimer on the semi-native gel; source: E. coli BL21minus (G6PDH-deficient), in cleared extract
Turning to B2, the stoichiometry N – broadly, a count of units in the complex or per binding partner – in data set [2] was determined as 2.
